Measurements published in paper PMC10221975 (Pharmaceutics, 2023).

Target: the molecule itself
Assay: dynamic light scattering; after irradiation of the N2O-saturated solution with 0.1 M NaN3 (oxidation by N3 radicals), 70 μM protein, 25 °C; the species seen are held by covalent bonds (dityrosine)

B1: papain (enzyme, UniProt P00784 134-345, looked up)
chain: IPEYVDWRQKGAVTPVKNQGSCGSCWAFSAVVTIEGIIKIRTGNLNEYSEQELLDCDRRSYGCNGGYPWSALQLVAQYGIHYRNTYPYEGVQRYCRSREKGPYAAKTDGVRQVQPYNEGALLYSIANQPVSVVLEAAGKDFQLYRGGIFVGPCGNKVDHAVAAVGYGPNYILIKNSWGTGWGENGYIRIKRGTGNSYGVCGLYTSSFYPVKN
notes: papain; source: bought: Roth (8933.1), used as received
**Q.** How did the “stoichiometry N” value turn out when B1 was run?
**A.** 2
